Assay results taken from patent publication US20170335317.

Experiments:
[1] = target: ATRX full length (UniProt P46100); test: filter
[2] = target: ATRX full length (UniProt P46100); test: FP

Chain of UniProt P46100 (P46100 whole entry): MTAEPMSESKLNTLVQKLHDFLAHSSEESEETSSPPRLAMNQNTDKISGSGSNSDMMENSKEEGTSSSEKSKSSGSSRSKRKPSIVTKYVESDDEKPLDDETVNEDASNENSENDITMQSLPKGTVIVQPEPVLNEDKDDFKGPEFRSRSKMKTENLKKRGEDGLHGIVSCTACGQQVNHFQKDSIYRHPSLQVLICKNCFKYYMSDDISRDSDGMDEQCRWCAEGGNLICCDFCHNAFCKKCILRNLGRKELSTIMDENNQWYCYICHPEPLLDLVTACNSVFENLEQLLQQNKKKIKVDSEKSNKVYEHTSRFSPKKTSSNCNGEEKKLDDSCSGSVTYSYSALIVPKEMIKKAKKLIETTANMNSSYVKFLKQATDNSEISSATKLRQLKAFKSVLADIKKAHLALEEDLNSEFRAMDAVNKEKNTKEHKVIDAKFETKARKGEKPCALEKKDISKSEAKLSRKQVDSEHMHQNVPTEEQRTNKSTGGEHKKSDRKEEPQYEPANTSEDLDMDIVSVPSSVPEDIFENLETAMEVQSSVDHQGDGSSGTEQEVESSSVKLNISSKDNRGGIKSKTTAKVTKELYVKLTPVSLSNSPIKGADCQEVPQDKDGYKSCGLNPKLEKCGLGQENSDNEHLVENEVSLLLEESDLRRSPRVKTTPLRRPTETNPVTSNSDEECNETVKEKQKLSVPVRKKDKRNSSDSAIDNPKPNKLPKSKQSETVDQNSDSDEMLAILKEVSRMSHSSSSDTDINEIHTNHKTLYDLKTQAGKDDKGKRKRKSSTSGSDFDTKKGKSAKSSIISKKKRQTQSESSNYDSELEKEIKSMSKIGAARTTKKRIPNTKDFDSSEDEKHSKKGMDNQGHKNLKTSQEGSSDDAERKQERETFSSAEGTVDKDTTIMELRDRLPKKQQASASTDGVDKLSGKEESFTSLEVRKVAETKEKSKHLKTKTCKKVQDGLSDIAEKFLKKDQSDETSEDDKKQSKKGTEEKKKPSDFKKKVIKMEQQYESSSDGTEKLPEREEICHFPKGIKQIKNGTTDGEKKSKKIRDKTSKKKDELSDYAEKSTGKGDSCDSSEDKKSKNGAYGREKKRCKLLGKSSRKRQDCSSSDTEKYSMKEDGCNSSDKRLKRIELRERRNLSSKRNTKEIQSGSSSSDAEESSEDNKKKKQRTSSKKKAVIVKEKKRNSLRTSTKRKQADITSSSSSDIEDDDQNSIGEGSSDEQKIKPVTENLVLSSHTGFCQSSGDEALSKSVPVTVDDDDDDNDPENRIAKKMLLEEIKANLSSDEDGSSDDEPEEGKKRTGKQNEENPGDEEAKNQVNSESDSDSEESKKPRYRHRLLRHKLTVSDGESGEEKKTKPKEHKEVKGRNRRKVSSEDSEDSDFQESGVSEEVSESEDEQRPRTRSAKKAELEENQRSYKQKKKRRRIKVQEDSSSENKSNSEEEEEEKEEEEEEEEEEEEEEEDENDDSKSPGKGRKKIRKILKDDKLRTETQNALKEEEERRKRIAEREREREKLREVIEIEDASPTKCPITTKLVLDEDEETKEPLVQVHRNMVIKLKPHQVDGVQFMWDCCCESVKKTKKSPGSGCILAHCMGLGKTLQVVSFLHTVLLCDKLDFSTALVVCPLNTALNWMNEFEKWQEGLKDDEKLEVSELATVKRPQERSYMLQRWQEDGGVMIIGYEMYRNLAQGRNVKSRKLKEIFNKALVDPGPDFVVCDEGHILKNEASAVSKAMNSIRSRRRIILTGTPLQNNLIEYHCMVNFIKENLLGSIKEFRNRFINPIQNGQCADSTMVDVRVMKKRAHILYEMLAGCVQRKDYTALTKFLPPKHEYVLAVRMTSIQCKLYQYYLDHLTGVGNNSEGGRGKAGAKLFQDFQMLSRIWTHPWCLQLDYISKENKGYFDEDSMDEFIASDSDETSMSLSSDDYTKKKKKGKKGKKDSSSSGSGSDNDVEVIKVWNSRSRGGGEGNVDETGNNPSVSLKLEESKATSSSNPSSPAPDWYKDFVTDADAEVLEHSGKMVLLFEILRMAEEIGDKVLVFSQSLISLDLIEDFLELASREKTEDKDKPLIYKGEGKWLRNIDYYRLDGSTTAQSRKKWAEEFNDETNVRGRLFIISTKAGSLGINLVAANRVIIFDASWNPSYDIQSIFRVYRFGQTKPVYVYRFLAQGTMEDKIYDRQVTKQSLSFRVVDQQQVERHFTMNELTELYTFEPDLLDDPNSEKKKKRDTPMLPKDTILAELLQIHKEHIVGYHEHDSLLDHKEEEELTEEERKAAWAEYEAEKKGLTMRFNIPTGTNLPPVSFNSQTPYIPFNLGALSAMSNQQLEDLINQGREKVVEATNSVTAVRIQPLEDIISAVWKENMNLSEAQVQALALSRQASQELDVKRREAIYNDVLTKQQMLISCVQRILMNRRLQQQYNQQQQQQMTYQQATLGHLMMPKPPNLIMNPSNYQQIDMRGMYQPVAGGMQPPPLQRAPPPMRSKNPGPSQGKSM

## Hotair dsDNA
[1]; Kd>>200 nM
  Kd: > 200 nM

## P4-P6 ribozyme RNA
[1]; Kd>>200 nM
  Kd: > 200 nM

## Repeat A ssDNA
[1]; could not bind well, Kd>>200 nM
  Kd: > 200 nM

## MBP mRNA first 300 nt
[1]; Kd>>200 nM
  Kd: > 200 nM

## Repeat A III-IV RNA
[1]; +/-3.35, double-filter binding
  Kd: 17.9 nM

## MBP dsDNA
[1]; Kd>>200 nM
  Kd: > 200 nM

## Xist Repeat A I-IV RNA
[2]
  Kd: 5.41 nM

## Repeat A I-II RNA
[1]; +/-0.89, double-filter binding
  Kd: 9.96 nM

## Repeat A dsDNA
[1]; unit not printed with value, nM by context
  Kd: 15.7 nM
